According to article PMC3084761:

Biological target: OS-9 fused to the N-terminus of EYFP (pEYFP-N1-OS-9) (human) (UniProt Q13438)
Experiment: FRET or BRET; live-cell confocal FRET of ECFP (donor) and EYFP (acceptor) fusions in HEK293 cells transfected 48 h; acceptor/donor plasmid ratios 1:1 to 5:1; FRET efficiency against A/D ratio fitted to a 1:1 binding model

Sequence of OS-9 fused to the N-terminus of EYFP (pEYFP-N1-OS-9) (human) (Q13438 26-667): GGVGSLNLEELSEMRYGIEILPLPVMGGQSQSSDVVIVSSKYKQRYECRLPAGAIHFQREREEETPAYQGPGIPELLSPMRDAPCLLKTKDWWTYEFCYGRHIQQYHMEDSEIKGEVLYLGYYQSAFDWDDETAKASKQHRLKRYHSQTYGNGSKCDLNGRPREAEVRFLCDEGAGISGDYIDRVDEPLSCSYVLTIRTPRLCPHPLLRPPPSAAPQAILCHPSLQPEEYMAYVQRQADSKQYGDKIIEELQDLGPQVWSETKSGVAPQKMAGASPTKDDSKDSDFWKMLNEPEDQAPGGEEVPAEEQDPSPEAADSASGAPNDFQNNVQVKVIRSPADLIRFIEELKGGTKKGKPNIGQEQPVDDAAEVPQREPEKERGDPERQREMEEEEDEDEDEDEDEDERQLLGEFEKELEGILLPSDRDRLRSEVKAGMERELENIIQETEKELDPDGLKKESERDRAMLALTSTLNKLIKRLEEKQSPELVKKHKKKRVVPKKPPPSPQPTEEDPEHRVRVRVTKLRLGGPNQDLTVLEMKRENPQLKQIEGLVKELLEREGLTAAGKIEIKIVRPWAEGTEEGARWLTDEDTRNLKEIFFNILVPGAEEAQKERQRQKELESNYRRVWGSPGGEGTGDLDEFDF

maximum FRET efficiency: < 10%
Substance: PHD2-ECFP (PHD2 coding sequence in pECFP-N1) (from UniProt Q9GZT9 1-426) (enzyme)
